Patent publication US20250376533A1
Like-named read-outs stand apart in the source and are kept apart here.

Legend:
[1] = target: human CD40 antigen (ACROBiosystems) (human) (UniProt P25942); test: ELISA, coated antigen
[2] = target: cynomolgus CD40 antigen (ACROBiosystems) (cynomolgus) (UniProt G7PG38); test: ELISA, coated antigen
[3] = target: CD40 on HEK-Blue CD40L cells (InvivoGen) (UniProt P25942); test: cell-based or functional assay
[4] = target: human CD40 antigen (ACROBiosystems) (human) (UniProt P25942); test: ELISA, coated antigen; remark: listed apart in the source
[5] = target: cynomolgus CD40 antigen (ACROBiosystems) (cynomolgus) (UniProt G7PG38); test: ELISA, coated antigen; remark: listed apart in the source
[6] = target: human PD-L1 antigen (ACROBiosystems) (human) (UniProt Q9NZQ7); test: ELISA, coated antigen
[7] = target: cynomolgus PD-L1 antigen (ACROBiosystems) (cynomolgus) (UniProt G7PSE7); test: ELISA, coated antigen
[8] = target: human PD-L1 antigen (ACROBiosystems) (human) (UniProt Q9NZQ7); test: ELISA, coated antigen; remark: listed apart in the source
[9] = target: human PD-L1 antigen (ACROBiosystems) (human) (UniProt Q9NZQ7); test: BLI (Gator), antibody captured on PA probe, human PD-L1 in solution

Chain of CD40 on HEK-Blue CD40L cells (InvivoGen) (P25942 21-277 limits assumed): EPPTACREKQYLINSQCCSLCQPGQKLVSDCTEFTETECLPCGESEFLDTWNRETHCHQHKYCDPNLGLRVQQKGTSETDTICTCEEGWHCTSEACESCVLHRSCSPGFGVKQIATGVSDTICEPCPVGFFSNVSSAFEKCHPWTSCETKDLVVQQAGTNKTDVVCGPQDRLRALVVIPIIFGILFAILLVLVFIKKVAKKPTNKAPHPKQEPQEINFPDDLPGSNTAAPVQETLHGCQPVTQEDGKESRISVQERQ
Chain of human PD-L1 antigen (ACROBiosystems) (human) (Q9NZQ7 19-238 limits assumed): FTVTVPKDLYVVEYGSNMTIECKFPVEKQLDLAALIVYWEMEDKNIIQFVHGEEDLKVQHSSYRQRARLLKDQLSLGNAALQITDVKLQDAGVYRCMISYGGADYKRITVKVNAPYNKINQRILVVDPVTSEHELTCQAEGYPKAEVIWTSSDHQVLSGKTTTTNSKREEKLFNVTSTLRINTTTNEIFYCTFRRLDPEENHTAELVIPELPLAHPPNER
Chain of control CD40 monoclonal antibody CP-870893 (IMGT database ID 10523) (VH): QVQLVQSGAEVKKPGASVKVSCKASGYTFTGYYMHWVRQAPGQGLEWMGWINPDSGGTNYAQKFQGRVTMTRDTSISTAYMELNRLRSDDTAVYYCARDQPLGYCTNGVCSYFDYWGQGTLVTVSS
Chain of control CD40 monoclonal antibody CP-870893 (IMGT database ID 10523) (VL): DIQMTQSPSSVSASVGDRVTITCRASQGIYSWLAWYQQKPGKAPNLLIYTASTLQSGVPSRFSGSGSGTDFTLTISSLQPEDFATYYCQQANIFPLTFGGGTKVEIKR
Chain of cynomolgus CD40 antigen (ACROBiosystems) (cynomolgus) (G7PG38 entry or part of it): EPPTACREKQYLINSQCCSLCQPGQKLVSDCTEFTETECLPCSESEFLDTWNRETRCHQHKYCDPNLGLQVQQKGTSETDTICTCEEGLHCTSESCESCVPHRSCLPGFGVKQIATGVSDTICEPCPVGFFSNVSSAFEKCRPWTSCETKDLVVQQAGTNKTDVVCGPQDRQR
Chain of human CD40 antigen (ACROBiosystems) (human) (P25942 21-193 limits assumed): as the sequence (G7PG38 entry or part of it) above, with S43G, R56H, Q70R, L89W, S95A, P101L, L106S, R142H, Q172L counted along it
Chain of cynomolgus PD-L1 antigen (ACROBiosystems) (cynomolgus) (G7PSE7 entry or part of it): as the sequence (Q9NZQ7 19-238 limits assumed) above, with A33T, A34S, S62N, R68Q, Q82R, F173L, T185A, T192I, H215L counted along it

Row | EC50 [1] | EC50 [2] | CD40 agonistic activity (A)/(B) Ratio, EC50 without over with CHO/PD-L1 [3] | CD40 agonistic activity EC50 (nM) with CHO/PD-L1 (B), SEAP reporter [3] | CD40 agonistic activity EC50 (nM) without CHO/PD-L1 (A), SEAP reporter [3] | EC50 [4] | EC50 [5] | EC50 [6] | EC50 [7] | EC50 [8] | koff [9] | Substance
1 | 0.018 nM | 0.018 nM | 0.9 | 0.123 nM | 0.109 nM | 0.016 nM | 0.016 nM |  |  |  |  | control CD40 monoclonal antibody CP-870893 (IMGT database ID 10523)
2 |  |  |  |  |  |  |  | 0.014 nM | 0.017 nM | 0.012 nM | 0.00265 s⁻¹ | control PD-L1 monoclonal antibody Durvalumab (IMGT database ID 10010)
